The target in test [1] is recombinant SARS-CoV-2 RBD (SARS-CoV-2, ancestral strain (assumed), UniProt P0DTC2). The test is described as follows: BLI. (BLI is a label-free optical method that tracks binding on a fibre tip over time.)
The target in test [2] is SARS-CoV-2 WA.1 spike protein (V-PLEX COVID-19 Panel 24) (SARS-CoV-2 WA.1 (ancestral), UniProt P0DTC2, strain). Description: electrochemiluminescence multiplex binding assay.

B1: 002-S21F2 full-length immunoglobulin G (IgG) (antibody, V domains shown)
VH: EVQLVQSGAEVKKPGESLKISCKASGYNFAYYWIGWVRQMPGKGLEWMGIIYPGDSDTRYSPSFQGQVTISADKSISTAYLQWSSLKASDTAMYYCARGEMTAVFGDYWGQGTLVTVSS
VL: DIQMTQSPSSLSASVGDRVTITCQASQDISNYLNWYQQKPGKAPKLLIYDASNLETGVPSRFSGSGSGTDFTLTISSLQPEDIATYYCQQYKILLTWTFGQGTKVEIK
Consider B1, for which the binding result in test [1] and in test [2] was “binds” each time.

Values taken from paper doi:10.1101/2022.05.13.491770 (bioRxiv, 2022).
